# From paper PMC2064523 (The Journal of Cell Biology, 2006)
# T1: Vh1 domain of human vinculin (residues 1–258) (human, UniProt P18206 1-258)
# T1 sequence (looked up): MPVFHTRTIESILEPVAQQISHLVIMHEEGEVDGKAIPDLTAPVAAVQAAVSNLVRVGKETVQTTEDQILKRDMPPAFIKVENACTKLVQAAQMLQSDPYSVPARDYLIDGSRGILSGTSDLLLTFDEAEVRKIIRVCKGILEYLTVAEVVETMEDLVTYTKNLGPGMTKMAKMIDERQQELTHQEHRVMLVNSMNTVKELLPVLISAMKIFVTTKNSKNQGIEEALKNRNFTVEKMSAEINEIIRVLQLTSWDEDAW
# B1: Vt domain of human vinculin (residues 879–1,066) (domain or fragment, UniProt P18206-2 879-1066, looked up)
# chain: EEKDEEFPEQKAGEVINQPMMMAARQLHDEARKWSSKGNDIIAAAKRMALLMAEMSRLVRGGSGTKRALIQCAKDIAKASDEVTRLAKEVAKQCTDKRIRTNLLQVCERIPTISTQLKILSTVKATMLGRTNISDEESEQATEMLVHNAQNLMQSVKETVREAEAASIKIRTDAGFTLRWVRKTPWYQ
# B2: IpaA-VBS peptide (IpaA residues 611–633) (peptide, UniProt P18010 611-633, looked up)
# peptide: NIYKAAKDVTTSLSKVLKNINKD
# B3: IpaA-VBS-Y613I peptide (peptide)
# peptide: NIIKAAKDVTTSLSKVLKNINKD
# B4: IpaA-VBS2 peptide (IpaA residues 565–587) (peptide, UniProt P18010 565-587, looked up)
# peptide: AIYEKAKEVSSALSKVLSKIDDT
# B5: IpaA-VBS2-K569A peptide (peptide)
# peptide: AIYEAAKEVSSALSKVLSKIDDT
# B6: IpaA residues 602–633 (containing the IpaA-VBS), peptide of the crystal structure (peptide, UniProt P18010 602-633, looked up)
# peptide: NNDITAENNNIYKAAKDVTTSLSKVLKNINKD
# How the values were obtained:
# [1] = target: Vh1 domain of human vinculin (residues 1–258) (human) (UniProt P18206); assay: SPR
# [2] = target: Human full-length vinculin (residues 1–1,066) (human) (UniProt P18206); assay: SPR
# [3] = target: Vh1 domain of human vinculin (residues 1–258) (human) (UniProt P18206); assay: native gel or EMSA
# [4] = target: T1, Vh1 domain of human vinculin (residues …); assay: native gel or EMSA
# [5] = target: T1, Vh1 domain of human vinculin (residues …); assay: SPR
# [6] = target: T1, Vh1 domain of human vinculin (residues …); assay: crystal structure
molecule,measurement,setting,value
"IpaA-Cterm (C-terminal domain of IpaA, residues 559–633) (from UniProt P18010 559-633) (domain or fragment)",Kd,[1],0.0062 pM
same,Kd,[2],35.2 pM
same,stoichiometry N,[3],1
IpaA-VBS2-Y567I peptide,Kd,[1],15000 pM
B1,binding result,[4],binds
B2,Kd,[5],110 pM
B3,Kd,[5],270 pM
B4,Kd,[5],6610 pM
B5,Kd,[5],530 pM
B6,binding result,[6],binds
